Molecular target: T1, RUVBL1/2 hetero-hexamer (purified, recombinant) (UniProt Q9Y265 1-456; Q9Y230 1-463)
T1 construct: RUVBL1; RUVBL2, untagged; Printed as a hetero-hexamer; also called RUVBL1/2 complex; source: E. coli BL21, co-expressed, purified (Ni-NTA, TEV cleavage, SEC on Superose 6); not shown: His6, N-terminal, cleaved
Assay: pull-down; MBP-KLF5 (10 μg) or MBP (5 μg) on amylose resin; 10 μg RUVBL1, 10 μg RUVBL2 or 20 μg RUVBL1/2 hetero-hexamer added for 2 h in 50 mM Na3PO4 pH 7.5, 0.1 mM EDTA, 200 mM NaCl, 1 mM DTT, 5% glycerol; washes with 250 mM NaCl; maltose elution; Western blot; 4 °C
Settings: both partners purified

T1 sequence (Q9Y265 whole entry, chain 1 of 2): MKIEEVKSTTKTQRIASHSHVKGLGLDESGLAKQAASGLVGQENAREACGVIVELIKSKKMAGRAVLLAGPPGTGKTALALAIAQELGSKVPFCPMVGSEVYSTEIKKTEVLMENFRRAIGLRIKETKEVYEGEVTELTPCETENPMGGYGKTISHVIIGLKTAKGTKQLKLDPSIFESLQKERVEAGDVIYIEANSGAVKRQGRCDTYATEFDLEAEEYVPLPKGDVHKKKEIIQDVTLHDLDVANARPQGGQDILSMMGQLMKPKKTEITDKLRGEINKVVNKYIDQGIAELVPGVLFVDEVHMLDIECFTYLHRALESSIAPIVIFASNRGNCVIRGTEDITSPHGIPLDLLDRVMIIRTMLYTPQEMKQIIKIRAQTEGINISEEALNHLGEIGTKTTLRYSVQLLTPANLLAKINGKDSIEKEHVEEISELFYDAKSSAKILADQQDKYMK
T1 sequence (Q9Y230 whole entry, chain 2 of 2): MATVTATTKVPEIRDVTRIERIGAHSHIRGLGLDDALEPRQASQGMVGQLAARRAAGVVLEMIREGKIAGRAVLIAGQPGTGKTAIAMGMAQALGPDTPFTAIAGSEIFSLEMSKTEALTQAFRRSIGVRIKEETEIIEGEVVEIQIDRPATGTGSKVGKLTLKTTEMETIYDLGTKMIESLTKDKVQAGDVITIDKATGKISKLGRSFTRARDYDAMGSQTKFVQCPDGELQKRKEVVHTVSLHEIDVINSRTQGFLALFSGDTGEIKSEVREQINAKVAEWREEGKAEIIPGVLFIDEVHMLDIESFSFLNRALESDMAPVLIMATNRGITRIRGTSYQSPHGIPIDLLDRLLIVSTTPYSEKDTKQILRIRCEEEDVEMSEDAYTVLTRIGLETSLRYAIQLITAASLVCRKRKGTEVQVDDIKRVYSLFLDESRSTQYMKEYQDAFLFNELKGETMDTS

binding result: binds
B1: recombinant MBP-tagged KLF5 (natural protein)
chain: not shown
notes: KLF5; For the pull-down with pure proteins the MBP-KLF5 was not previously subject to the amylose purification; also called MBP-KLF5; 6xHis-TEV-MBP-KLF5; source: E. coli BL21-CodonPlus (DE3)-RIPL, purified (Ni-NTA, TEV cleavage, SEC; also amylose resin for the mass spectrometry experiments); not shown: His6, N-terminal, cleaved; MBP, N-terminal, kept

Reference: publication PMC12619835, “KLF5 enables dichotomous lineage programs in pancreatic cancer via the AAA+ ATPase coactivators RUVBL1 and RUVBL2” (Nature Communications, 2025)
